B1: PA26^YF (other)
chain: PPKRAALIQNLRDSYTETSSFAVIEEWAAGTLQEIEGIAKAAAEAHGVIRNSTYGRAQAEKSPEQLLGVLQRYQDLCHNVYCQAETIRTVIAIRIPEHKEADNLGVAVQHAVLKIIDELEIKTLGSGEKSGSGGAPTPIGMYALREYLSARSTVEDKLLGSVDAESGKTKGGSQSPSLLLELRQIDADFMLKVELATTHLSTMVRAVINAYLLNWKKLIQPRTGNLSYFT
B2: wild-type PA26 (T. brucei) (natural protein)
chain: PPKRAALIQNLRDSYTETSSFAVIEEWAAGTLQEIEGIAKAAAEAHGVIRNSTYGRAQAEKSPEQLLGVLQRYQDLCHNVYCQAETIRTVIAIRIPEHKEEDNLGVAVQHAVLKIIDELEIKTLGSGEKSGSGGAPTPIGMYALREYLSARSTVEDKLLGSVDAESGKTKGGSQSPSLLLELRQIDADFMLKVELATTHLSTMVRAVINAYLLNWKKLIQPRTGSDHMVS
B3: PA26^E102A-Opt5 (other)
chain: PPKRAALIQNLRDSYTETSSFAVIEEWAAGTLQEIEGIAKAAAEAHGVIRNSTYGRAQAEKSPEQLLGVLQRYQDLCHNVYCQAETIRTVIAIRIPEHKEADNLGVAVQHAVLKIIDELEIKTLGSGEKSGSGGAPTPIGMYALREYLSARSTVEDKLLGSVDAESGKTKGGSQSPSLLLELRQIDADFMLKVELATTHLSTMVRAVINAYLLNWKKLIQPRTGNLSYYT

Key:
[1] = target: T1, biotinylated human 20S proteasome (human, UniProt P60900 1-246; P25787 1-234; P25789 1-261; O14818 1-248; P28066 1-241; P25786 …); test: BLI
[2] = target: T1, biotinylated human 20S proteasome; test: BLI; remark: listed apart in the source

Binder | Kd [1] [pM] | koff [2] [s⁻¹]
B1 | 220 | 0.00026
B2 | 100 | 0.00029
B3 | – | 0.00016
